Results on three molecules are retold here after PMC7447783, “Cryo-EM structure of trimeric Mycobacterium smegmatis succinate dehydrogenase with a membrane-anchor SdhF” (Nature Communications, 2020).

The target in data set [1] is T1, Sdh2 (trimeric diheme succinate:menaquinone oxidoreductase, complex II) (Mycolicibacterium smegmatis, UniProt A0QT08+A0QT09+A0QT10).
T1 construct: gene sdhA; SdhD with C-terminal 10xHis tag (pVV16) expressed in M. smegmatis; digitonin-solubilised, Ni-NTA and gel filtration; trimer of SdhABCDF; SdhF 3 kDa; with Succinate dehydrogenase iron-sulfur subunit; Succinate dehydrogenase membrane-anchor subunit SdhF
The data set can be described thus: cryo-EM structure, […] Å. As to conditions: co-purified; SdhA subunit. In kind it is binding.

The target in data set [2] is Mycobacterium smegmatis succinate dehydrogenase Sdh2 (trimer of SdhA-SdhB-SdhC-SdhD-SdhF protomers) (M. smegmatis) (UniProt A0QT09). The data set can be described thus: cryo-EM structure; digitonin-solubilised Sdh2 complex co-purified from M. smegmatis membranes, 5 mg/mL, 20 mM MOPS pH 7.4, 100 mM NaCl, 0.1% digitonin; 2.8 Å.
Data set [3] concerns the molecule itself. The description is as above.

For the molecule `Cc1cc2nc3c(=O)[nH]c(=O)nc-3n(C[C@H](O)[C@H](O)[C@H](O)COP(=O)(O)OP(=O)(O)OC[C@H]3O[C@@H](n4cnc5c(N)ncnc54)[C@H](O)[C@@H]3O)c2cc1C` [FAD], in data set [1], the “cryo-EM structure, 2.8 Å” value was “All the prosthetic groups (FAD, [2Fe-2S], [4Fe-4S], [3Fe-4S], and two b-type heme groups)”. In general, stoichiometry N refers to the number of molecules, sites or subunits per partner or assembly. “Mycobacterium smegmatis succinate dehydrogenase Sdh2 (trimer of SdhA-SdhB-SdhC-SdhD-SdhF protomers) (from UniProt A0QT09 1-156) (complex)”: the stoichiometry N in data set [2] turned out to be 3.

B1: SdhD subunit of M. smegmatis Sdh2 (membrane-anchored protein) with C-terminal 10x His tag (natural protein)
chain: MSAPGAGESRLGRPAPVMEREHDRPAALDHPRAPRKPRGIPYFEKYAWLFMRFSGIALVFLALGHLFIMLMWQDGVYRIDFNYVAERWASPFWQIWDMALLWLAMIHGANGMRTIIGDYARKNVTKFWLNSLLLLATGFTLVLGSYVLVTFDANIS
notes: SdhD (Sdh2D), membrane-anchor subunit of M. smegmatis Sdh2 with three transmembrane helices (IV-VI), gene MSMEG_1671; also called Sdh2D; subunit D; source: M. smegmatis mc2 51, expressed from pVV16; digitonin extract of membranes, purified with the complex (Ni-NTA, Superdex 200); not shown: His10, C-terminal, kept
As for B1, in data set [3], the binding result is reported as “binds”.
